Numbering of substitutions follows the chain as printed.

To fix the notation:
T1: recombinant human CEACAM-3/CD66d protein (Sino Biological; Cat. No. 11933-H08H) (human, UniProt P40198 35-155)
T1 construct: Bought protein; also called HCCM3
T1 sequence (looked up): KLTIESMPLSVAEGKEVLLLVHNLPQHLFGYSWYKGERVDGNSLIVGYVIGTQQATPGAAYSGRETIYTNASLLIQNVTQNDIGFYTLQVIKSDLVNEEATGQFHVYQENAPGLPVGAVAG

T2: recombinant human CEACAM-5/CD66e protein (R&D systems; Cat. No. 4128-CM) (human, UniProt P06731 35-685)
T2 construct: Bought protein; also called HCCM5
T2 sequence (looked up): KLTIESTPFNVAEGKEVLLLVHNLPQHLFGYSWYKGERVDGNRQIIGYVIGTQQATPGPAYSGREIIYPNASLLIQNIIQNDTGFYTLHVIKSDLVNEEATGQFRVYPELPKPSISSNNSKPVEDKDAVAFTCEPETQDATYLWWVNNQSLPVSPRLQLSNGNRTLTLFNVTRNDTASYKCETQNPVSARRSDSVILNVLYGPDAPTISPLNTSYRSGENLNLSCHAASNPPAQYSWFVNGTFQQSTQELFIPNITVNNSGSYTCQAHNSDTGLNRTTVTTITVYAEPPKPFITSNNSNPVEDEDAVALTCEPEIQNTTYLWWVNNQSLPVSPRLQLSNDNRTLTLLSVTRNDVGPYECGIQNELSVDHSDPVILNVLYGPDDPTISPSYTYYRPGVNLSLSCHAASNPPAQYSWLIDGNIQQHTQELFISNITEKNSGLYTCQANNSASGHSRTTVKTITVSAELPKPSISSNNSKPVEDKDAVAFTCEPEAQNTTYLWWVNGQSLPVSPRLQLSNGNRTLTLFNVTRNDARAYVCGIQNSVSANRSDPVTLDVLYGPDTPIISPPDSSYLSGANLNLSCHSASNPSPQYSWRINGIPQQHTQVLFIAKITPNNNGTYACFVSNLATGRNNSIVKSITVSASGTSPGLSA

T3: human CEACAM1 expressed on the cell surface (CEACAM1-Jurkat T cells); HEK293 cells transfected with human … (human, UniProt P13688 35-526)
T3 construct: whole, on cells; also called CCM1
T3 sequence (looked up): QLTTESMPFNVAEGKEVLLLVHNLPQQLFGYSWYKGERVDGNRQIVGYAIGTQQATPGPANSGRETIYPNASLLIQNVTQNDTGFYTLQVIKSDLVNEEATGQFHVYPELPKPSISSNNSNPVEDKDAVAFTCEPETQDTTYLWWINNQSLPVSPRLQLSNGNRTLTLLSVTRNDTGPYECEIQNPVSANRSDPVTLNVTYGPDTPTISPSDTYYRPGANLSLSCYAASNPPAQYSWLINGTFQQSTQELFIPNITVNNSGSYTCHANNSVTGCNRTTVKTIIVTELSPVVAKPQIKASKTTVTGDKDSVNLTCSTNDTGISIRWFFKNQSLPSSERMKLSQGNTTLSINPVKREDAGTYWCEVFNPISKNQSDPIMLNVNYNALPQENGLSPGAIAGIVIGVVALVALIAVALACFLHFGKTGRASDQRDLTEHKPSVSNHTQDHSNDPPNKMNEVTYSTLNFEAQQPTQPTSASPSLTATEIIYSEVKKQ

B1: C25 (antibody, human IgG4 S228P, lambda, V domains shown)
VH: EVQLLESGGGLVQPGGSLRLSCAASGFTFSNYAMSWVRQAPGKGLEWVSVISHGGGSIYYADSVKGRLTISRDNSKNTLYLQMNSLRAEDTAVYYCARDPTKGYAPTFDYWGQGTLVTVSS
VL: QSVLTQPPSASGTPGQRVTISCSGSSSNIGNNYVSWYQQLPGTAPKLLIYADSKRPSGVPDRFSGSKSGTSASLAISGLRSEDEADYYCGAWDASLNGYVFGGGTKLTVLG
notes: Made in ExpiHEK293F cells, protein A purified. huIgG4 is the isotype control and anti-huIgG4 the detection reagent; the isotype is not otherwise stated; also called anti-CEACAM1 antibody C25
B2: C26 (antibody, human IgG4 S228P, lambda, V domains shown)
VH: EVQLLESGGGLVQPGGSLRLSCAASGFTFSGYDMSWVRQAPGKGLEWVSWISYGGGSIYYADSVKGRFTISRDNSKNTLYLQMNSLRAEDTAVYYCAKDRLPQKAVRHSYANGMDVWGQGTLVTVSS
VL: B1 VL with S35T, K54H, A94Y, N97S
B3: C19 (antibody, human IgG4 S228P, lambda, V domains shown)
VH: EVQLLESGGGLVQPGGSLRLSCAASGFTFSGYAMSWVRQAPGKGLEWVSGIYHDGGSTYYADSVKGRFTISRDNSKNTLYLQMNSLRAEDTAVYYCARVTVLCTTYGCSSYDGMDVWGQGTLVTVSS
VL: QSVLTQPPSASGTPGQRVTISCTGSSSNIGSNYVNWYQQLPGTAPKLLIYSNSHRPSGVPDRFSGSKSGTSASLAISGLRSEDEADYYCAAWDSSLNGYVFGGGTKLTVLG
B4: C18 (antibody, human IgG4 S228P, lambda, V domains shown)
VH: EVQLLESGGGLVQPGGSLRLSCAASGFTFSNYDMSWVRQAPGKGLEWVSGISHSSGSKYYADSVKGRFTISRDNSKNTLYLQMNSLRAEDTAVYYCARDPLPCLIPKCSYYYAMDVWGQGTLVTVSS
VL: B1 VL with S11P, N31S, Y33A, S35T, K54H, A91S, A94D, G98A
B5: C15 (antibody, human IgG4 S228P, lambda, V domains shown)
VH: EVQLLESGGGLVQPGGSLRLSCAASGFTFSSYSMSWVRQAPGKGLEWVSSISPNGGNKYYADSVKGRFTISRDNSKNTLYLQMNSLGAEDTAVYYCAKDPYNIYQPLFDYWGQGTLVTVSS
VL: B1 VL with P8L, S35N, D52N, K54N, D83E, A91T, N97S, G98A
B6: 4R9 (antibody, human IgG4 S228P, lambda, V domains shown)
VH: B1 VH
VL: B1 VL with K54R, A94L
notes: also called C25-derived clone 4R9
B7: 4R26 (antibody, human IgG4 S228P, lambda, V domains shown)
VH: B1 VH
VL: B1 VL with P56L, A94G, S95R
notes: also called C25-derived clone 4R26
B8: 4R9_H2-2 (antibody, human IgG4 S228P, lambda, V domains shown)
VH: B1 VH with T107L
VL: B1 VL with K54R, A94L
notes: also called C25-derived clone 4R9_H2-2

The target of the first test is T1, recombinant human CEACAM-3/CD66d …. The test can be described thus: ELISA on coated antigen (0.25 µg/ml), HRP anti-human IgG Fab, OD450. From the text:
(§1) All of the recombinant human CEACAM-1/CD66a protein (R&D systems; Cat. No. 2244-CM, HCCM1), recombinant human CEACAM-5/CD66e protein (R&D systems; Cat. No. 4128-CM, HCCM5), recombinant human CEACAM-6/CD66c protein (R&D systems; Cat. No. 3934-CM, HCCM6), recombinant human CEACAM-3/CD66d protein (Sino Biological; Cat. No. 11933-H08H, HCCM3), recombinant mouse PD-1 Fc chimeric protein (R&D systems; Cat. No. 1021-PD, mPD-1-Fc), recombinant CEACAM1-Fc (IgG4) protein (Mogam, in-house production, HCCM1-Fc), recombinant human CEACAM-1/CD66a protein Bulk (R&D systems; Cat. No. 2244-CM, HCCM1 (bulk)) and mouse CEACAM1/CD66a protein (Sino Biological; Cat. No. 50571-M08H, mouse CCM1) (2.5 μg each) were dissolved in 10 ml of PBS, respectively and dispensed into a 96-well plate (Nunc; Cat. No. 467679) at 100 μl/well, which was incubated overnight at 4° C. Thereafter, each well was treated with 300 μl of 1% (v/v) bovine serum albumin, which was incubated at 37° C. for 1 hour.
(§2) The diluted antibodies were dispensed into each well coated with each protein at 100 μl/well, which was incubated at 37° C. for 1 hour. Then, each well was washed 3 times with a washing buffer prepared by diluting 10 μl of Tween 20 (Sigma-Aldrich; Cat. No. P9146) in 990 μl of PBS. Thereafter, 2 μl of HRP-conjugated human anti-IgG-Fab antibody (anti-human IgG Fab; Sigma; Cat. No. A0293) was diluted in 10 ml of PBS, added to the wells at 100 μl/well, and incubated for 1 hour.
(§3) After completion of the reaction, the wells were washed three times with the washing buffer, and 100 μl of TMB solution was added to each well to induce color development. Then, 100 μl of 2 M H₂SO₄ was added to each well to stop the reaction, and the absorbance was measured at a wavelength of 450 nm.
As to B1, the binding result was “no binding (tested: 3 µg/ml (single concentration))”.
Consider B2, for which the binding result is listed as “no binding (tested: 3 µg/ml (single concentration))”.
The same measure, in the same setting: as for B3, the entry is “no binding (tested: 3 µg/ml (single concentration))”.

For the next test, the target named is T2, recombinant human CEACAM-5/CD66e …. The test is described as above.
Description: as §1, §2, §3
Take B4: the binding result was “no binding (tested: 3 µg/ml (single concentration))”.
Same read-out and setting: as for B1, the entry is “no binding (tested: 3 µg/ml (single concentration))”.
The same measure, in the same setting: as for B2, the entry is “no binding (tested: 3 µg/ml (single concentration))”; as for B5, “no binding (tested: 3 µg/ml (single concentration))”.

The next test has as its target T3, human CEACAM1 expressed on the cell …. The test can be described thus: flow cytometry on CEACAM1-Jurkat T cells; maximal MFI told of the 'other clones' as a group. The procedure: The CEACAM1-Jurkat T cells prepared above were treated with Fc block solution and incubated for 15 minutes. […] Herein, it is noted that the cell numbers were adjusted to 1×10⁵. The cells incubated with the antibodies were repeatedly subjected to the washing procedure of resuspending the cells in a FACS buffer and centrifuging the solution at 1,500 rpm.
PE-conjugated goat anti-human F(ab)₂; (Sigma; Cat. No. P8047)) was diluted in the FACS buffer at a volume ratio of 1:200, and then added to the cells at 100 μl/well. Cells were resuspended well and incubated at 4° C. for 30 minutes in a dark condition.
The cells incubated with the fixation buffer were repeatedly subjected to the washing procedure of resuspending the cells in a FACS buffer, centrifuging the solution at 1,500 rpm, and discarding the supernatant. The washed cells were resuspended in 200 μl of a FACS buffer, and the mean fluorescence intensities (MFIs) of the PE-labeled cells were monitored by a FACS LSR-Fortessa. All FACS analyses were conducted using the FlowJo software.
For orientation: In flow cytometry, cells or beads pass a laser one at a time.
In the case of B6, the MFI came out at 8000.
On to B7, for which the MFI amounted to 8000.
Turning to B8, the MFI came to 8000.

Values taken from US20200109196A1 (MOGAM INSTITUTE FOR BIOMEDICAL RESEARCH, published 2020).
